{"source": "patent US20150086555A1", "conditions_in_all_cases": "remark: other sources report otherwise", "key": {"[1]": {"molecular_target": "recombinant soluble homotrimeric HA of A/Netherlands/219/03 (H7N7) (Influenza A virus A/Netherlands/219/03(H7N7))", "assay": "HA microarray, BCC supernatant"}, "[2]": {"molecular_target": "recombinant soluble homotrimeric HA of A/Indonesia/5/05 (H5N1) (Influenza A virus A/Indonesia/5/2005(H5N1))", "assay": "HA microarray, BCC supernatant"}, "[3]": {"molecular_target": "recombinant soluble homotrimeric HA of A/Egypt/3300-NAMRU3/08 (H5N1) (Influenza A virus A/Egypt/3300-NAMRU3/2008(H5N1))", "assay": "HA microarray, BCC supernatant"}, "[4]": {"molecular_target": "recombinant soluble homotrimeric HA of A/Hong Kong/2108/03 (H9N2) (Influenza A virus A/HK/2108/2003(H9N2))", "assay": "HA microarray, BCC supernatant"}, "[5]": {"molecular_target": "recombinant soluble homotrimeric HA of A/duck/Yangzhou/02/05 (H8N4) (Influenza A virus A/duck/Yangzhou/02/2005(H8N4))", "assay": "HA microarray, BCC supernatant"}, "[6]": {"molecular_target": "recombinant soluble homotrimeric HA of A/Anhui/1/05 (H5N1) (Influenza A virus A/Anhui/1/2005(H5N1))", "assay": "HA microarray, BCC supernatant"}, "[7]": {"molecular_target": "recombinant soluble homotrimeric HA of A/Japan/305/57 (H2N2) (Influenza A virus A/Japan/305/1957(H2N2))", "assay": "HA microarray, BCC supernatant"}, "[8]": {"molecular_target": "recombinant soluble homotrimeric HA of A/Solomon Islands/3/06 (H1N1) (Influenza A virus A/Solomon Islands/3/2006(H1N1))", "assay": "HA microarray, BCC supernatant"}, "[9]": {"molecular_target": "recombinant soluble homotrimeric HA of A/Vietnam/1203/04 (H5N1) (Influenza A virus A/VietNam/1203/2004(H5N1))", "assay": "HA microarray, BCC supernatant"}, "[10]": {"molecular_target": "recombinant soluble homotrimeric HA of A/California/4/09 (H1N1) (Influenza A virus A/California/04/2009(H1N1))", "assay": "HA microarray, BCC supernatant"}, "[11]": {"molecular_target": "recombinant soluble homotrimeric HA of A/Wisconsin/67/05 (H3N2) (Influenza A virus A/Wisconsin/67/2005(H3N2))", "assay": "HA microarray, BCC supernatant"}, "[12]": {"molecular_target": "recombinant soluble homotrimeric HA, A/Anhui/1/05 H5N1 (Influenza A virus A/Anhui/1/2005(H5N1))", "assay": "microarray, transfection SN IgG, trimeric HA"}, "[13]": {"molecular_target": "recombinant soluble homotrimeric HA, A/Japan/305/57 H2N2 (Influenza A virus A/Japan/305/1957(H2N2))", "assay": "microarray, transfection SN IgG, trimeric HA"}, "[14]": {"molecular_target": "recombinant soluble homotrimeric HA, A/Solomon Islands/3/06 H1N1 (Influenza A virus A/Solomon Islands/3/2006(H1N1))", "assay": "microarray, transfection SN IgG, trimeric HA"}, "[15]": {"molecular_target": "recombinant soluble homotrimeric HA, A/South Carolina/1/18 H1N1 (Influenza A virus A/South Carolina/1/18 (H1N1))", "assay": "microarray, transfection SN IgG, trimeric HA"}, "[16]": {"molecular_target": "recombinant soluble homotrimeric HA, A/Vietnam/1203/04 H5N1 (Influenza A virus A/VietNam/1203/2004(H5N1))", "assay": "microarray, transfection SN IgG, trimeric HA"}, "[17]": {"molecular_target": "recombinant soluble homotrimeric HA, A/California/4/09 H1N1 (Influenza A virus A/California/04/2009(H1N1))", "assay": "microarray, transfection SN IgG, trimeric HA"}, "[18]": {"molecular_target": "recombinant soluble homotrimeric HA, A/Hong Kong/156/97 H5N1 (Influenza A virus A/Hong Kong/156/97 (H5N1))", "assay": "microarray, transfection SN IgG, trimeric HA"}, "[19]": {"molecular_target": "recombinant homotrimeric HA A/Solomon Islands/3/06 H1N1 (Influenza A virus A/Solomon Islands/3/2006(H1N1))", "assay": "protein microarray, purified IgG, trimeric HA"}, "[20]": {"molecular_target": "recombinant homotrimeric HA A/South Carolina/1/18 H1N1 (Influenza A virus A/South Carolina/1/18 (H1N1))", "assay": "protein microarray, purified IgG, trimeric HA"}, "[21]": {"molecular_target": "recombinant homotrimeric HA A/Vietnam/1203/04 H5N1 (Influenza A virus A/VietNam/1203/2004(H5N1))", "assay": "protein microarray, purified IgG, trimeric HA"}, "[22]": {"molecular_target": "recombinant homotrimeric HA A/Anhui/1/05 H5N1 (Influenza A virus A/Anhui/1/2005(H5N1))", "assay": "protein microarray, purified IgG, trimeric HA"}, "[23]": {"molecular_target": "recombinant homotrimeric HA A/Japan/305/57 H2N2 (Influenza A virus A/Japan/305/1957(H2N2))", "assay": "protein microarray, purified IgG, trimeric HA"}, "[24]": {"molecular_target": "recombinant homotrimeric HA A/Netherlands/219/03 H7N7 (Influenza A virus A/Netherlands/219/03(H7N7))", "assay": "protein microarray, purified IgG, trimeric HA"}, "[25]": {"molecular_target": "recombinant homotrimeric HA A/Indonesia/5/05 H5N1 (Influenza A virus A/Indonesia/5/2005(H5N1))", "assay": "protein microarray, purified IgG, trimeric HA"}, "[26]": {"molecular_target": "recombinant homotrimeric HA A/Hong Kong/156/97 H5N1 (Influenza A virus A/Hong Kong/156/97 (H5N1))", "assay": "protein microarray, purified IgG, trimeric HA"}, "[27]": {"molecular_target": "recombinant homotrimeric HA A/Egypt/3300-NAMRU3/08 H5N1 (Influenza A virus A/Egypt/3300-NAMRU3/2008(H5N1))", "assay": "protein microarray, purified IgG, trimeric HA"}, "[28]": {"molecular_target": "recombinant homotrimeric HA A/California/4/09 H1N1 (Influenza A virus A/California/04/2009(H1N1))", "assay": "protein microarray, purified IgG, trimeric HA"}, "[29]": {"molecular_target": "hemagglutinin (HA) of influenza A/Japan/305/57 (H2N2) on whole virions (Influenza A virus A/Japan/305/1957(H2N2)), P03451", "assay": "ELISA; BCC supernatant on coated inactivated whole virions"}}}
{"binder": "TCN-551 (5243_D01) (antibody, V domains shown) VH: EVQLVQSGSEVKKPGESLKISCKGSGYSFSNYWIGWVRHMPGKGLEWMGIIYPGDSDTRYSPSFQGQVTMSADKSSSTVYLQWSSLKASDTAIYYCARRGGHSFGYGSGGDTHSEFDSWGQGTLVTVSS VL: QSVLTQSPSVSAAPGQKVTISCSGSDSNIGDYFVCWYQHLPGKPPQLLIYENNKRPSGIPDRFSGSKSGTSATLGITGIQTGDEADYYCATWDGSLSAWVFGGGTKLTVL", "values": [{"measurement": "Trimeric HA Binding: RLU", "setting": "[1]", "value": 786, "unit": "RLU"}, {"measurement": "Trimeric HA Binding: RLU", "setting": "[2]", "value": 53500, "unit": "RLU"}, {"measurement": "Trimeric HA Binding: RLU", "setting": "[3]", "value": 47200, "unit": "RLU"}, {"measurement": "Trimeric HA Binding: RLU", "setting": "[4]", "value": 224, "unit": "RLU"}, {"measurement": "Trimeric HA Binding: RLU", "setting": "[5]", "value": 9820, "unit": "RLU"}, {"measurement": "Trimeric HA Binding: RLU", "setting": "[6]", "value": 4190, "unit": "RLU"}, {"measurement": "Trimeric HA Binding: RLU", "setting": "[7]", "value": 22600, "unit": "RLU"}, {"measurement": "Trimeric HA Binding: RLU", "setting": "[8]", "value": 53800, "unit": "RLU"}, {"measurement": "Trimeric HA Binding: RLU", "setting": "[9]", "value": 4150, "unit": "RLU"}, {"measurement": "Trimeric HA Binding: RLU", "setting": "[10]", "value": 53400, "unit": "RLU"}, {"measurement": "Trimeric HA Binding: RLU", "setting": "[11]", "value": 6840, "unit": "RLU"}, {"measurement": "Trimeric HA Binding: RLU", "setting": "[12]", "value": 2640, "unit": "RLU"}, {"measurement": "Trimeric HA Binding: RLU", "setting": "[13]", "value": 25200, "unit": "RLU"}, {"measurement": "Trimeric HA Binding: RLU", "setting": "[14]", "value": 43500, "unit": "RLU"}, {"measurement": "Trimeric HA Binding: RLU", "setting": "[15]", "value": 4340, "unit": "RLU"}, {"measurement": "Trimeric HA Binding: RLU", "setting": "[16]", "value": 41900, "unit": "RLU"}, {"measurement": "Trimeric HA Binding: RLU", "setting": "[17]", "value": 46100, "unit": "RLU"}, {"measurement": "Trimeric HA Binding: RLU", "setting": "[18]", "value": 792, "unit": "RLU"}, {"measurement": "Trimeric HA Binding: RLU", "setting": "[19]", "value": 25000, "unit": "RLU"}, {"measurement": "Trimeric HA Binding: RLU", "setting": "[20]", "value": 10300, "unit": "RLU"}, {"measurement": "Trimeric HA Binding: RLU", "setting": "[21]", "value": 2950, "unit": "RLU"}, {"measurement": "Trimeric HA Binding: RLU", "setting": "[22]", "value": 6640, "unit": "RLU"}, {"measurement": "Trimeric HA Binding: RLU", "setting": "[23]", "value": 1600, "unit": "RLU"}, {"measurement": "Trimeric HA Binding: RLU", "setting": "[24]", "value": 1670, "unit": "RLU"}, {"measurement": "Trimeric HA Binding: RLU", "setting": "[25]", "value": 296, "unit": "RLU"}, {"measurement": "Trimeric HA Binding: RLU", "setting": "[26]", "value": 824, "unit": "RLU"}, {"measurement": "Trimeric HA Binding: RLU", "setting": "[27]", "value": 907, "unit": "RLU"}, {"measurement": "Trimeric HA Binding: RLU", "setting": "[28]", "value": 19400, "unit": "RLU"}, {"measurement": "ELISA virus binding (OD450)", "setting": "[29]", "value": 0.19, "unit": "OD450"}]}
